From PMC10493163

Biological target: angiotensin-converting enzyme 2 (ACE2), noncovalently adsorbed on (GT)6-SWCNTs (human) (UniProt Q9BYF1)
Assay: other fluorescence titration

Chain of UniProt Q9BYF1 (Q9BYF1 18-805): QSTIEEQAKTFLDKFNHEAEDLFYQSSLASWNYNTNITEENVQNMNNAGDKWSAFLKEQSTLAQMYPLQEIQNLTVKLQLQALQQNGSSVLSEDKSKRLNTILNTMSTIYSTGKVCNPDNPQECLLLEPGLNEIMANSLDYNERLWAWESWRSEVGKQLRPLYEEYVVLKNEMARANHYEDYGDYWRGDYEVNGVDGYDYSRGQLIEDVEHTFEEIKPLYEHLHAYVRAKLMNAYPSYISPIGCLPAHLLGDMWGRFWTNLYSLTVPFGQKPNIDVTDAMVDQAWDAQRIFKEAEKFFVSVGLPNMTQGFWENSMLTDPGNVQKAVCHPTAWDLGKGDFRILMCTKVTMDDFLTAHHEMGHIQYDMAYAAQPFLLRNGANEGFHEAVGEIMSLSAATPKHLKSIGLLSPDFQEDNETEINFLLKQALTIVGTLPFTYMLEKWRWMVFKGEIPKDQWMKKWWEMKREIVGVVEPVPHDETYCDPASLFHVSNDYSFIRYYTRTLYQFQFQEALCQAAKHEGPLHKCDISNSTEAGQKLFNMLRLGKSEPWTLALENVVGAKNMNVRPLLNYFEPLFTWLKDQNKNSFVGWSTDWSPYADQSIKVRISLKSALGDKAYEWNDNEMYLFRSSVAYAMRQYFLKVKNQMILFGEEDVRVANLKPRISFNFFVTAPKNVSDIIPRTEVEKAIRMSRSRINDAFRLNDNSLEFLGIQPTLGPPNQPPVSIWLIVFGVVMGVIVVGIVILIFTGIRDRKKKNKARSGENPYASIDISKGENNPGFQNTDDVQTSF

For “SARS-CoV-1 spike protein receptor-binding domain (domain or fragment)”, the dF/F0 of the 1130 nm SWCNT emission peak after 90 min, 10 mg/L was 88.4%.
